Results as given in patent US8409836B2, “Treatment of cellulosic material and enzymes useful therein” (Roal Oy, priority 2005, dated 2013).

How the values were obtained:
Assay type in all cases: biochemical
[1] = Xylanase activity on birch xylan; conditions: purified cellobiohydrolases, 50° C., pH 5.0
Method: (§1) The specific activity of the preparations was determined using 4-methylumbelliferyl-β-D-lactoside (MUL), 4-methylumbelliferyl-β-D-cellobioside (MUG2) or 4-methylumbelliferyl-β-D-cellotrioside (MUG3) as substrate (van Tilbeurgh et al., 1988) in 0.05 M sodium citrate buffer pH 5 at 50° C. for 10 min. Endoglucanase and xylanase activities were determined by standard procedures (according to IUPAC, 1987) using carboxymethyl cellulose (CMC) and birch glucuronoxylan (Bailey et al., 1992) as substrates. Specific activity against Avicel was calculated on the basis of reducing sugars formed in a 24 h reaction at 50° C., pH 5.0, with 1% substrate and 0.25 μM enzyme dosage. The protein content of the purified enzyme preparations was measured according to Lowry et al., 1951. To characterize the end products of hydrolysis, soluble sugars liberated in 24 h hydrolysis experiment, as described above, were analysed by HPLC (Dionex). Purified cellobiohydrolase I (CBHI/Cel7A) of Trichoderma reesei was used as a reference.
Acremonium thermophilum ALKO4245 was grown as described in Example 1. The culture supernatant was incubated at 70° C. for 24 hours after which, it was concentrated by ultrafiltration. The pure xylanase was obtained by sequential purification with hydrophobic interaction and cation exchange chromatography followed by gel filtration. The xylanase activity was determined using birch xylan as substrate (procedure of IUPAC 1987). Protein was assayed by BioRad Protein Assay Kit (Bio-Rad Laboratories) using bovine serum albumin as standard.
Thermoascus aurantiacus ALKO4242 was grown as described in Example 1. The pure xylanase was obtained by sequential purification with hydrophobic interaction, anion, and cation exchange chromatography followed by gel filtration. The xylanase activity was determined using birch xylan as substrate (procedure of IUPAC 1987). Protein was assayed by BioRad Protein Assay Kit (Bio-Rad Laboratories) using bovine serum albumin as standard.

[2] = Endoglucanase activity on carboxymethyl cellulose; conditions: purified cellobiohydrolases, 50° C., pH 5.0
Method: as §1
(§2) Acremonium thermophilum ALKO4245 was grown as described in Example 1. The culture supernatant was incubated at 70° C. for 24 hours after which it was concentrated by ultrafiltration. The pure endoglucanase was obtained by sequential purification with hydrophobic interaction and cation exchange chromatography followed by gel filtration. The endoglucanase activity of the fractions collected during purification was determined using carboxymethyl cellulose (CMC) as substrate (procedure of IUPAC 1987). Protein content was measured by BioRad Assay Kit (Bio-Rad Laboratories) using bovine serum albumine as standard.
as §2, with “Thermoascus aurantiacus ALKO4242 was” for “Acremonium thermophilum ALKO4245 was”, “1.” for “1. The culture supernatant was incubated at 70° C. for 24 hours after which it was concentrated by ultrafiltration.”, “and anion” for “and cation”

[3] = Specific activity on MUG2; conditions: purified cellobiohydrolases, 50° C., pH 5.0
Method: as §1

[4] = Specific activity on MUG3; conditions: purified cellobiohydrolases, 50° C., pH 5.0
Method: as §1

Specific activity on MUL = conditions: purified cellobiohydrolases, 50° C., pH 5.0
Method: as §1

[5] = Specific activity against Avicel; conditions: 50° C., pH 5.0, 24 h, 1% substrate, 0.25 μM enzyme
Method: as §1

[6] = Thermal stability of purified cellobiohydrolases; conditions: 0.1% BSA, pH 5.0, 60 min, MUL substrate
Method: Thermal stability of the purified cellobiohydrolases was determined at different temperatures. The reaction was performed in the presence of 0.1% BSA at pH 5.0 for 60 min using 4-methylumbelliferyl-β-D-lactoside as substrate. C. thermophilum ALKO4265 CBH/Cel7A and A. thermophilum ALKO4245 CBH/Cel7A were stable up to 65° and 60° C., respectively. The T. reesei reference enzyme (CBHI/Cel7A) retained 100% of activity up to 55° C.

[7] = pH optimum of recombinant CBH/Cel7 proteins; conditions: McIlvaine buffer, pH range 3.0-8.0, MUL, 50° C., 10 min
Method: The recombinant CBH/Cel7 enzyme preparations were characterized in terms of pH optimum and thermal stability. The pH optimum of the recombinant CBH/Cel7 proteins from Thermoascus aurantiacus, Chaetomium thermophilum, and Acremonium thermophilum were determined in the universal McIlvaine buffer within a pH range of 3.0-8.0 using 4-methylumbelliferyl-β-D-lactoside (MUL) as a substrate (FIG. 3A). The pH optimum for Ct Cel7A and At Cel7A enzymes is at 5.5, above which the activity starts to gradually drop. The pH optimum of the recombinant crude Ta Cel7A is at 5.0 (FIG. 3A). Thermal stability of the recombinant Cel7 enzymes was determined by measuring the MUL activity in universal McIlvaine buffer at the optimum pH with reaction time of 1 h.

[8] = Hydrolysis with CBH enzyme mixtures, Avicel; conditions: additional enzymes EGII, bG; 48 h, 45° C., pH 5.0
Method: (§3) The performance of the purified recombinant cellobiohydrolases was evaluated in the hydrolysis studies with purified T. reesei enzymes. Hydrolysis was carried out with controlled mixtures of purified enzymes on several pre-treated substrates. […] In addition, pure T. reesei cellulases (purified as described by Suurnäkki et al., 2000) were used in the enzyme mixtures. The cellobiohydrolases used in the experiment were:
(§4) Each CBH/Cel7 to be tested (dosage 14.5 mg/g dry matter of substrate) was used either together with EGII/Cel5A of T. reesei (3.6 mg/g) or with a mixture containing T. reesei EGI/Cel7B (1.8 mg/g), EGII/Cel5A (1.8 mg/g), xylanase pI 9 (Tenkanen et al. 1992) (5000 nkat/g) and acetyl xylan esterase (AXE) (Sundberg and Poutanen, 1991) (250 nkat/g). All mixtures were supplemented with additional β-glucosidase from a commercial enzyme preparation Novozym 188 (176 nkat/g d.w.). Triplicate tubes containing the enzyme mixture and 10 mg (dry matter)/ml of the substrate suspended in 0.05 M sodium acetate were incubated in mixing by magnetic stirring at 45° C. for 48 h. Reference samples with inactivated enzymes and corresponding substrates were also prepared. The release of hydrolysis products was measured as reducing sugars with DNS method using glucose as standard (Table 30).
Crystalline cellulose (Avicel)

[9] = Hydrolysis with CBH enzyme mixtures, spruce; conditions: additional enzymes EGII, bG; 48 h, 45° C., pH 5.0
Method: as §3, §4
Washed steam pre-treated spruce fibre (impregnation with 3% w/w SO2 for 20 min, followed by steam pre-treatment at 215° C. for 5 min), dry matter 25.9% (SPRUCE).

[10] = Hydrolysis with CBH enzyme mixtures, corn stover; conditions: additional enzymes EGII, bG, 48 h, 45° C., pH 5.0
Method: as §3, §4
Washed wet oxidized corn stover fibre (WOCS).

[11] = Hydrolysis with CBH enzyme mixtures, willow; conditions: additional enzymes EGII, bG, 48 h, 45° C., pH 5.0
Method: as §3, §4
Washed steam pre-treated willow fibre (pre-treatment for 14 min at 210° C.), dry matter 23.0% (WILLOW).

Hydrolysis products as reducing sugars, Avicel [8] | Hydrolysis products as reducing sugars, SPRUCE [9] | Hydrolysis products as reducing sugars, WOCS ([10]; EGI, XYL, AXE) | Hydrolysis products as reducing sugars, WOCS [10] | Hydrolysis products as reducing sugars, WILLOW ([11]; EGI, XYL, AXE) | Hydrolysis products as reducing sugars, WILLOW [11] | Molecule | Specific activity, Xylan [1] | Specific activity, CMC [2] | Specific activity, MUG2 [3] | Specific activity, MUG3 [4] | Specific activity, MUL (Specific activity on MUL) | Specific activity, Avicel [5] | Thermal stability: temperature up to which stable / 100% of activity retained [6] | pH optimum [7]
6.0 mg/mL | 2.6 mg/mL | 5.6 mg/mL | 3.4 mg/mL | 4.0 mg/mL | 2.6 mg/mL | Ct Cel7A: cellobiohydrolase of Chaetomium thermophilum ALKO4265, gene Ct cel7A, amino acid SEQ ID NO: 8, with CBD (protein) MMYKKFAALAALVAGASAQQACSLTAENHPSLTWKRCTSGGSCSTVNGAVTIDANWRWTHTVSGSTNCYTGNQWDTSLCTDGKSCAQTCCVDGADYSSTYGITTSGDSLNLKFVTKHQYGTNVGSRVYLMENDTKYQMFELLGNEFTFDVDVSNLGCGLNGALYFVSMDADGGMSKYSGNKAGAKYGTGYCDAQCPRDLKFINGEANVGNWTPSTNDANAGFGRYGSCCSEMDVWEANNMATAFTPHPCTTVGQSRCEADTCGGTYSSDRYAGVCDPDGCDFNAYRQGDKTFYGKGMTVDTNKKMTVVTQFHKNSAGVLSEIKRFYVQDGKIIANAESKIPGNPGNSITQEYCDAQKVAFSNTDDFNRKGGMAQMSKALAGPMVLVMSVWDDHYANMLWLDSTYPIDQAGAPGAERGACPTTSGVPAEIEAQVPNSNVIFSNIRFGPIGSTVPGLDGSNPGNPTTTVVPPASTSTSRPTSSTSSPVSTPTGQPGGCTTQKWGQCGGIGYTGCTNCVAGTTCTQLNPWYSQCL | 6.7 nkat/mg | 5.5 nkat/mg | 18.9 nkat/mg | 1.5 nkat/mg | 54.0 nkat/mg | 1.4 nkat/mg | up to 65 °C | 5.5
4.7 mg/mL | 2.9 mg/mL | 6.0 mg/mL | 2.9 mg/mL | 4.1 mg/mL | 2.9 mg/mL | Tr Cel7A: purified cellobiohydrolase I (CBHI/Cel7A) of Trichoderma reesei used as a reference (protein, UniProt P62694 18-513, looked up) Exoglucanase 1: QSACTLQSETHPPLTWQKCSSGGTCTQQTGSVVIDANWRWTHATNSSTNCYDGNTWSSTLCPDNETCAKNCCLDGAAYASTYGVTTSGNSLSIGFVTQSAQKNVGARLYLMASDTTYQEFTLLGNEFSFDVDVSQLPCGLNGALYFVSMDADGGVSKYPTNTAGAKYGTGYCDSQCPRDLKFINGQANVEGWEPSSNNANTGIGGHGSCCSEMDIWEANSISEALTPHPCTTVGQEICEGDGCGGTYSDNRYGGTCDPDGCDWNPYRLGNTSFYGPGSSFTLDTTKKLTVVTQFETSGAINRYYVQNGVTFQQPNAELGSYSGNELNDDYCTAEEAEFGGSSFSDKGGLTQFKKATSGGMVLVMSLWDDYYANMLWLDSTYPTNETSSTPGAVRGSCSTSSGVPAQVESQSPNAKVTFSNIKFGPIGSTGNPSGGNPPGGNRGTTTTRRPATTTGSSPGPTQSHYGQCGGIGYSGPTVCASGTTCQVLNPYYSQCL | 1.3 nkat/mg | 1.0 nkat/mg | 4.3 nkat/mg | 0.9 nkat/mg | 21.9 nkat/mg | 0.6 nkat/mg | up to 55 °C | 
